From the supplement of paper PMC11246515
± gives the standard deviation of the averaged measurements.

Test: total protein half-life in vivo (active degradation + dilution); higher = more stable protein
[1] = E. coli NCM3722 delta-clpP delta-lon delta-hslV, growth: N-lim chemostat, doubling time 6 h
[2] = E. coli NCM3722 delta-clpP, growth: N-lim chemostat, doubling time 6 h
[3] = E. coli NCM3722 delta-hslV, growth: N-lim chemostat, doubling time 6 h
[4] = E. coli NCM3722 delta-lon, growth: N-lim chemostat, doubling time 6 h
[5] = E. coli NCM3722 delta-smpB, growth: N-lim chemostat, doubling time 6 h
[6] = wild type E. coli NCM3722, growth: C-lim chemostat, doubling time 3 h
[7] = wild type E. coli NCM3722, growth: C-lim chemostat, doubling time 6 h
[8] = wild type E. coli NCM3722, growth: C-lim chemostat, doubling time 12 h
[9] = wild type E. coli NCM3722, growth: N-lim chemostat, doubling time 6 h
[10] = wild type E. coli NCM3722, growth: N-lim chemostat, doubling time 12 h
[11] = wild type E. coli NCM3722, growth: P-lim chemostat, doubling time 6 h
[12] = wild type E. coli NCM3722, growth: P-lim chemostat, doubling time 12 h

Sequence | total protein half-life in vivo [1] [h] | total protein half-life in vivo [2] [h] | total protein half-life in vivo [3] [h] | total protein half-life in vivo [4] [h] | total protein half-life in vivo [5] [h] | total protein half-life in vivo [6] [h] | total protein half-life in vivo [7] [h] | total protein half-life in vivo [8] [h] | total protein half-life in vivo [9] [h] | total protein half-life in vivo [10] [h] | total protein half-life in vivo [11] [h] | total protein half-life in vivo [12] [h]
MAKEKKRGFFSWLGFGQKEQTPEKETEVQNEQPVVEEIVQAQEPVKASEQAVEEQPQAHTEAEAETFAADVVEVTEQVAESEKAQPEAEVVAQPEPVVEETPEPVAIEREELPLPEDVNAEAVSPEEWQAEAETVEIVEAAEEEAAKEEITDEELETALAAEAAEEAVMVVPPAEEEQPVEEIAQEQEKPTKEGFFARLKRSLLKTKENLGSGFISLFRGKKIDDDLFEELEEQLLIADVGVETTRKIITNLTEGASRKQLRDAEALYGLLKEEMGEILAKVDEPLNVEGKAPFVILMVGVNGVGKTTTIGKLARQFEQQGKSVMLAAGDTFRAAAVEQLQVWGQRNNIPVIAQHTGADSASVIFDAIQAAKARNIDVLIADTAGRLQNKSHLMEELKKIVRVMKKLDVEAPHEVMLTIDASTGQNAVSQAKLFHEAVGLTGITLTKLDGTAKGGVIFSVADQFGIPIRYIGVGERIEDLRPFKADDFIEALFARED | 5.949 ± 0.013 | 6.16 ± 0.62 | 6.29 ± 0.82 | 5.53 ± 0.3 | 5.61 ± 0.034 | 3.038 ± 0.019 | 5.835 ± 0.012 | 11.1 ± 1.8 | 5.94 ± 0.28 | 10.7 ± 0.25 | 5.64 ± 0.21 | 11.92 ± 0.0035
MRSFSQLWPTLKRLLAYGSPWRKPLGIAVLMMWVAAAAEVSGPLLISYFIDNMVAKNNLPLKVVAGLAAAYVGLQLFAAGLHYAQSLLFNRAAVGVVQQLRTDVMDAALRQPLSEFDTQPVGQVISRVTNDTEVIRDLYVTVVATVLRSAALVGAMLVAMFSLDWRMALVAIMIFPVVLVVMVIYQRYSTPIVRRVRAYLADINDGFNEIINGMSVIQQFRQQARFGERMGEASRSHYMARMQTLRLDGFLLRPLLSLFSSLILCGLLMLFGFSASGTIEVGVLYAFISYLGRLNEPLIELTTQQAMLQQAVVAGERVFELMDGPRQQYGNDDRPLQSGTIEVDNVSFAYRDDNLVLKNINLSVPSRNFVALVGHTGSGKSTLASLLMGYYPLTEGEIRLDGRPLSSLSHSALRQGVAMVQQDPVVLADTFLANVTLGRDISEERVWQALETVQLAELARSMSDGIYTPLGEQGNNLSVGQKQLLALARVLVETPQILILDEATASIDSGTEQAIQHALAAVREHTTLVVIAHRLSTIVDADTILVLHRGQAVEQGTHQQLLAAQGRYWQMYQLQLAGEELAASVREEESLSA [P0AAG5] | 6.44 ± 0.43 | 6 ± 0.12 | 4.33 ± 0.16 | 3.97 ± 0.13 | 4.31 ± 0.43 | 2.85 | 4.47 ± 0.42 | 8.8 ± 2.3 | 4.589 ± 0.038 | 6.71 ± 0.085 | 5.09 ± 0.38 | 10.3 ± 0.7
MDSSFTPIEQMLKFRASRHEDFPYQEILLTRLCMHMQSKLLENRNKMLKAQGINETLFMALITLESQENHSIQPSELSCALGSSRTNATRIADELEKRGWIERRESDNDRRCLHLQLTEKGHEFLREVLPPQHNCLHQLWSALSTTEKDQLEQITRKLLSRLDQMEQDGVVLEAMS [P0ACR9] | 6.37 ± 0.21 | 6.705 ± 0.017 | 5.82 ± 1 | 5.39 ± 0.61 | 4.81 ± 0.11 | 2.7 ± 0.27 | 5.49 ± 0.42 | 11 ± 0.57 | 4.78 ± 0.44 | 7.04 ± 0.45 | 4.86 ± 0.51 | 9.8 ± 0.2
MLSRRGHRLSRFRKNKRRLRERLRQRIFFRDKVVPEAMEKPRVLVLTGAGISAESGIRTFRAADGLWEEHRVEDVATPEGFDRDPELVQAFYNARRRQLQQPEIQPNAAHLALAKLQDALGDRFLLVTQNIDNLHERAGNTNVIHMHGELLKVRCSQSGQVLDWTGDVTPEDKCHCCQFPAPLRPHVVWFGEMPLGMDEIYMALSMADIFIAIGTSGHVYPAAGFVHEAKLHGAHTVELNLEPSQVGNEFAEKYYGPASQVVPEFVEKLLKGLKAGSIA | 5.1 ± 0.51 | 4.14 ± 0.054 | 4.03 ± 0.65 | 5.77 ± 0.77 | 4.15 ± 0.36 | 2.64 ± 0.21 | 4.79 ± 0.29 | 10.2 ± 0.35 | 4.37 ± 0.24 | 7.71 ± 0.99 | 5.56 ± 0.39 | 10.5 ± 1.2
MALHDENVVWHSHPVTVQQRELHHGHRGVVLWFTGLSGSGKSTVAGALEEALHKLGVSTYLLDGDNVRHGLCSDLGFSDADRKENIRRVGEVANLMVEAGLVVLTAFISPHRAERQMVRERVGEGRFIEVFVDTPLAICEARDPKGLYKKARAGELRNFTGIDSVYEAPESAEIHLNGEQLVTNLVQQLLDLLRQNDIIRS [P0A6J1] | 4.97 ± 0.48 | 3.79 ± 0.44 | 2.03 ± 0.21 | 2.4 ± 0.82 | 1.72 ± 0.06 | 1.86 ± 0.13 | 4.8 ± 3 |  | 2.41 | 2.47 | 2.07 | 3.52 ± 0.087
